Source: IntAct's records for PubMed 18432193

B1: Protein draper (Drosophila melanogaster (Fruit fly)), Q9W0A0 (parent)
chain: MLPVILIACLAQLVLAQADLKDLDGPNICKRRELYNVDVVYTELQSFQERGSTWCVTFPPRCSTYRIKHRVVNKTKTIAKNRIVRDCCDGYIASAGECVPHCSEPCQHGRCISPEKCKCDHGYGGPACDINCPPGWYGRNCSMQCDCLNNAVCEPFSGDCECAKGYTGARCADICPEGFFGANCSEKCRCENGGKCHHVSGECQCAPGFTGPLCDMRCPDGKHGAQCQQDCPCQNDGKCQPETGACMCNPGWTGDVCANKCPVGSYGPGCQESCECYKGAPCHHITGQCECPPGYRGERCFDECQLNTYGFNCSMTCDCANDAMCDRANGTCICNPGWTGAKCAERICEANKYGLDCNRTCECDMEHTDLCHPETGNCQCSIGWSSAQCTRPCTFLRYGPNCELTCNCKNGAKCSPVNGTCLCAPGWRGPTCEESCEPGTFGQDCALRCDCQNGAKCEPETGQCLCTAGWKNIKCDRPCDLNHFGQDCAKVCDCHNNAACNPQNGSCTCAAGWTGERCERKCDTGKFGHDCAQKCQCDFNNSLACDATNGRCVCKQDWGGVHCETNCRSGYYGENCDKVCRCLNNSSCDPDSGNCICSAGWTGADCAEPCPPGFYGMECKERCPEILHGNKSCDHITGEILCRTGYIGLTCEHPCPAGLYGPGCKLKCNCEHGGECNHVTGQCQCLPGWTGSNCNESCPTDTYGQGCAQRCRCVHHKVCRKADGMCICETGWSGTRCDEVCPEGFYGEHCMNTCACPSANFQCHAAHGCVCRSGYTGDNCDELIASQRIADQSENSSRASVALTLVLMTLFACIIFAVFIYYRRRVSNLKTEIAHVHYTHDTNPPSWPPNHNFDNPVYGMQAETRLLPNNMRSKMNNFDQRSTMSTDYGDDCNASGRVGSYSINYNHDLLTKNLNADRTNPIVYNESLKEEHVYDEIKHKEGYKDPDEYDHLDYSRPSTSQKPHYHRMNDAMLNINQDEEKPSNVKNMTVLLNKPLPPTEPEPQHECFDNTNTNLDNVSTASPSSSPKFLK
partner: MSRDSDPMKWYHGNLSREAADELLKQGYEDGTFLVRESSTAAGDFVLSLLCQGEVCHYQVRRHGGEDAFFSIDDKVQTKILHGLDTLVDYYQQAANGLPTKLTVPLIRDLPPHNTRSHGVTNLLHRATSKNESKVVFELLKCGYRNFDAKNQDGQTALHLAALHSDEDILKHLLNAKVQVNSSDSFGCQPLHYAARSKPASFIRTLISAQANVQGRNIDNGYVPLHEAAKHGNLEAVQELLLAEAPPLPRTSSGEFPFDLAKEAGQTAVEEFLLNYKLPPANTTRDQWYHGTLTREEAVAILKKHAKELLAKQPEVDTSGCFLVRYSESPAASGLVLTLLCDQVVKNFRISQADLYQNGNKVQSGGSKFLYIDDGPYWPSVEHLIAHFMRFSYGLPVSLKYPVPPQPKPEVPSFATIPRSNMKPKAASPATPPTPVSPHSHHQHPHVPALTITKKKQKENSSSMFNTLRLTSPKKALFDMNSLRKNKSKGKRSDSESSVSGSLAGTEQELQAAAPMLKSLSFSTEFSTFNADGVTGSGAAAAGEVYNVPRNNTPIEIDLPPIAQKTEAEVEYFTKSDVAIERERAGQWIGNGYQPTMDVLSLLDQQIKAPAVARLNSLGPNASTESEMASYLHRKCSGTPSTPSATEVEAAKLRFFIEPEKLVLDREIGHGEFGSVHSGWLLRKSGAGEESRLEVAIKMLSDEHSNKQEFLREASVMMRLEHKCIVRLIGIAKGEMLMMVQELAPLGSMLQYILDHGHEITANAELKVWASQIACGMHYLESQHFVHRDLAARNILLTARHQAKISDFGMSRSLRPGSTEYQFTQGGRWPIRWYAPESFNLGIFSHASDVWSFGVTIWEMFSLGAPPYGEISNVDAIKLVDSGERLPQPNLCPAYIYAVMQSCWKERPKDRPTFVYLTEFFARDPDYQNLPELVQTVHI

Variants of: B1
Details: with shark_drome Shark

Variant | effect of a mutation on the interaction
Y949F | decreasing interaction

Variants of: B1
Details: with shark_drome Shark
Remark: another data set of the same source

Variant | effect of a mutation on the interaction
Y949F | disrupting interaction
Y934F | decreasing interaction
